Values of other authors in publication PMC7214499.

Biological target: IFNAR2 ECD (Homo sapiens) (UniProt P48551)
UniProt P48551, sequence (P48551 27-243): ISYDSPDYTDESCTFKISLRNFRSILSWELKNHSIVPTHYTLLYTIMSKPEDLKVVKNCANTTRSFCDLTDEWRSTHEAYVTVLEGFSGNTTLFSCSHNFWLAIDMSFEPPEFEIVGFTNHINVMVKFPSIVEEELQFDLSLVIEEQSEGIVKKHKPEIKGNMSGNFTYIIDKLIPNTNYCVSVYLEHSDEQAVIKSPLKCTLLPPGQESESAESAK

Kd: 10 nM
Substance: IFNα2 (from UniProt P01563)
